Assay results as given in US20060253917A1 (published 2006).
Ends that are not written are not given here.

T1: OsMADS45 aa 50-198 (Oryza sativa, UniProt P0C5B0 50-198)
T1 construct: bait, Gal4 DBD fusion; also called PN20231; O. sativa MADS box protein MADS45
T1 sequence: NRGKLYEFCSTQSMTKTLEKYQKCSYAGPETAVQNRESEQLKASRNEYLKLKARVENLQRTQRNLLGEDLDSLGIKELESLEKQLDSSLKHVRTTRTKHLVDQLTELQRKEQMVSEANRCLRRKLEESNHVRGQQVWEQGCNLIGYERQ

T2: OsCS aa 316-583 (Oryza sativa, UniProt A2Y0X2 316-583)
T2 construct: bait, Gal4 DBD fusion; also called PN19707
T2 sequence: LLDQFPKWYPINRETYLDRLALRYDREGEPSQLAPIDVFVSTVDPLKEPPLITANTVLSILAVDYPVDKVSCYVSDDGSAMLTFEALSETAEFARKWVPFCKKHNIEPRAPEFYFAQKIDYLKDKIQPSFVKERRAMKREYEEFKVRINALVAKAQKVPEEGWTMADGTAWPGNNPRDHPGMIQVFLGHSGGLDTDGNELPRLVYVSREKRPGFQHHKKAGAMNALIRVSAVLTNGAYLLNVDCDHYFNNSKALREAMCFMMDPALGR

T3: OsERP (PN20696) aa 50-145 (Oryza sativa, UniProt Q0JBH9 50-144)
T3 construct: bait, Gal4 DBD fusion; also called Elicitor responsive protein
T3 sequence: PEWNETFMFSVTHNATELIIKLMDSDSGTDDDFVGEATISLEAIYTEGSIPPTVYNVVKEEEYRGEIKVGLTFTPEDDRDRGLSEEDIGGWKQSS

B1: OsFDRMADS8 aa 63-186 (other)
chain: LQKTIDRYKAYTKDHVNNKTIQQDIQQVKDDTLGLAKKLEALDESRRKILGENLEGCSIEELRGLEMKLEKSLHNIRLKKTELLERQIAKLKEKERTLLKDNENLRGKHRNLEAAALVANHMTT
notes: prey, AD fusion; also called PN20698
B2: OsFDRMADS8 aa 104-233 (other)
chain: LDESRRKILGENLEGCSIEELRGLEMKLEKSLHNIRLKKTELLERQIAKLKEKERTLLKDNENLRGKHRNLEAAALVANHMTTTTAPAAWPRDVPMTSSTAGAADAMDVETDLYIGLPGTERSSNRSETG
notes: prey, AD fusion; also called PN20698; O. sativa MADS-box protein FDRMADS8
B3: OsFDRMADS6 aa 115-246 (other)
chain: EDLESLNLKELQQLEQQLENSLKHIRSRKSQLMLESINELQRKEKSLQEENKVLQKELVEKQKVQKQQVQWDQTQPQTSSSSSSFMMREALPTTNISNYPAAAGERIEDVAAGQPQHVRIGLPPWMLSHING
notes: prey, AD fusion; also called PN19766; O. sativa MADS-box protein FDRMADS6
B4: OsPN29084 aa 1-253 (other)
chain: ESGIFRQILRGKLDLESDPWPSISDSAKDLVRNMLIRDPTKRFTAHEVLCHPWIVDDAVAPDKPIDSAVLSRLKHFSAMNKLKKMALRVIAESLSEEEIGGLKELFKMIDTDNSGTITYDELKNGLKRVGSDLMEPEIQALMDAADIDNSGTIDYGEFLAATLHMNKLEREENLVSAFTFFDKDGSGFITIDELSQACEQFGLSDVHLEDMIKDVDQNNDGQIDYSEFAAMMRKGNAGGANAGGVTSTGGTGR
notes: prey, AD fusion; also called Novel Protein PN29084, Fragment, Similar to Soybean Calcium-Dependent Protein Kinase
B5: OsPIP2A aa 123-290 (other)
chain: RKVSLVRAILYIVAQCLGAICGVGLVNAFPNAYFNRYGGGANTLAAGYSKGTGLAAEIIGTFVLVYTVFSATDPKRNARDSHVPVLAPLPIGFAVFMVHLATIPITGTGINPARSIGAAVIFNNEKAWHNHWIFWVGPFVGAAIAAFYHQYILRAGAIKALGSFRSNA
notes: prey, AD fusion; also called PN29098; O. sativa Aquaporin
B6: OsPN29077 aa 1-242 (other)
chain: VEAQKKIEAAIRQKGIDENWEAALEHNPEAFARVVMLYVDMEVNGVPLKAFVDSGAQSTIISKSCAERCGLLRLLDQRYRGVAIGVGQSEILGRIHVAPIKIGHVFYPCSFTVLDAPNMEFLFGLDMLRKHQCIIDLKDNVLRVGGGEVSVPFLQEKDIPSHIRDEEKLSKLASLSQGAAGESSTAREKTPDAPPRAPTTGAPAVNPPQPQGGGDFEAKVTKLVELGFDRASVIQALKLFNG
notes: prey, AD fusion; also called Novel Protein PN29077, Fragment, Similar to A. thaliana DNA-Damage Inducible Protein DDI1-Like
B7: OsPN29076 aa 1-187 (other)
chain: ERDISMVNSYPPSAFDCKGWNSASIFIYESDEEIQCLLDWLRDYDPREKELKDSILQWQRHFCHQSSSPLVDPPISGPKGEQLMELPNTKAAVILEQKYGLQLDQDTSDLPKKRGKKIKLSSEDRTYRCDCLEPVWPSRYHCLTCHETYLISTEFEGHNDGKCSKIHQSPDESRENDEPKVKVTKSD
notes: prey, AD fusion; also called Novel Protein PN29076, Fragment
B8: OsPN29113 aa 1-92 (other)
chain: CKVSYIDAILGTTVKVPTVDGMVDLKIPSGTQPGTTLVMSKKGVPLLGKSNARGDQLVRVQVEIPKRLSSDERKLIEELANLNKAQTANSRR
notes: prey, AD fusion; also called O. sativa DNAJ Homologue
B9: OsPN29117 prey clone -7-151 (other)
chain: MLVQRRDGDTGPAVRLRVSHGASFRDVAVPAHSTFGELKGVLTQATGVEPERQRLFFRGKEKSDNEFLHTAGVKDGAKLLLLEKPAPANVEQRAEPVIMDESMMKACEAVGRVRAEVDRLSAKVCDLEKSVFAGRKIEDKDFVVLTELLMM
notes: prey, AD fusion; clone includes a small portion (-7 to 0) of the 5' untranslated region; also called Novel Protein PN29117
B10: OsPN29115 aa 1-188 (other)
chain: VSFPYSPRPAALAAGARASRVSPVVVAAGGGHQRLMGSLTNTQGLRFGVVVARFNEIVTNLLLQGALETFERYSVKKENITVLSVPGSFEIPVAAQKLGKSGKFDANFVHWRCAFRGDTTHYGAVANSAASGVLSAGLSAEIPCIFGVLTCDDMDQALNRAGGKAGNKGAEAALTAIEMASLFQHHLA
notes: prey, AD fusion; also called Novel Protein PN29115, Fragment, Similar to A. thaliana 6,7-Dimethyl-8-Ribityllumazine Synthase Precursor
B11: OsPN29116 aa 1-169 (other)
chain: GRKPVAAQHYNKGDKDGTSTGSRCTSVAWVPEREGIFVVSHSDGNLYVYDKCKDGNTECTFPAIKDPAQLMISHAKSSKSNPIARWHVCQGSINAISFSPDGAYLATVGRDGYLRVFDFSKEQLIFGGKSYYGALLCCTWSSDGKYLLTGGEDDLVQVWSMDDRKIVAW
notes: prey, AD fusion; also called Novel Protein PN29116, Fragment
B12: OsAAB53810 aa 6-145 (other)
chain: IGPWGGNGGSAQDISVPPKKLLGVTIYSSDAIRSIAFNYIGVDGQEYAIGPWGGGESTSTEIKLGSSEQIKEISGTHGPVYDLADIVTYLKIVTSANNTYEAGVPNGKEFSIPLQDSGHVVGFFGRSGTLIDAIGIYVHP
notes: prey, AD fusion; also called PN29086; O. sativa salT Gene Product
B13: PN29983 aa 1-131 (other)
chain: GVETVVTDTAGNKVVVTGAADAAELKERIEARTKKAVQIVSAGAGPPPKKDKEEKKDKDKKGGGDDKKAEKEKGGGGGDKKAEKEKGGGDKPKEEKKAKEPKEETVTLKIRLHCEGCIDRIKRRICKIKGG
notes: prey, AD fusion; also called Novel protein PN29983
B14: PN30870 aa 1-446 (other)
chain: GEEDEHPHEGRAGVERRRQHVVVLLPPPLAVLEHEVVEDGARDEPARDVGRRRRRHPGEPVGDDGDVDERDPLLLRERPAEQPHRHGQHGAGEEQPHQVAVQAVAAEQPGGADEPPDHRRVERDPVLGARPRAVRVQRLHVADVVDAAQHPPRHRQVHHAGDHRAHQLRRVHAPRRDLHVVPQLEVREERQRVHRADPPVDLEQQVRDRLPRQRVPDHELRDDVVPRLLVGGGLDDADGEGDDEGEGEGEEHPPPRQLHLLPVHERHDQRHGDAADEQHEEPPLRHLLVPPHQLRVHVHLRRRGAHRRPALPPDVPAVEQRHVHDRRREPQEPGPDGDGEQRAQVQLPVALVRRHVEVELPREHLGGVVLLPGRREQLVGEDWELPRVERVELPVAERHDEVDEHDEARGGVGDGRPRRHQRAPVVRRDAGPVQCEGADAEAVVAG
notes: prey, AD fusion; also called Isp-4 like
B15: PN30844 aa 1-64 (other)
chain: VAVRKKETRDGAMQTMPSRVQQGAADFEETLFVRCHLYCSGGAGTGKPLRFEPRPFLLSAVAVE
notes: prey, AD fusion; also called Novel protein PN30844
B16: PN29984 aa 5-41 (other)
chain: SSGTTSRPTASRTQQTKGRLTVTISLKAYSPGRTRSG
notes: prey, AD fusion; also called Novel Protein PN29984
B17: PN30845 aa 1-64 (other)
chain: GDQGRTYLFRVSNVGVKTSVNVRIQGHSLRLVEVEGTHPVQNVYDSLDVHVGQSVAFLVTLDKA
notes: prey, AD fusion; also called Pectinesterase-like
B18: PN30857 aa 1-148 (other)
chain: QDTRPLQAQRRRHGGGPQDRQREPSQGDFLRRQREEHPGGEEDRAPHGAGGHAAAGEGRGPRAGEHPQHQGGAAGAVGGGREGGGRAHLLRPRRHRDIGDRVGHTYCLSRLRRIAQNEQPSIHPCPSLAGQVIIRWEFRIGRDNNTFQ
notes: prey, AD fusion; also called Novel protein PN30857
B19: PN30843 aa 164-221 (other)
chain: RALQNFTAEELLDGGEKQYQCQRCRKKVVAKKKFTIDKAPYVLTIHLKRFSPFNPREK
modifications: cysteine pairing not given here; also: AD fusion
notes: prey, AD fusion; also called Ubiquitin specific protease-like
B20: PN29984 aa 1-38 (other)
chain: APSSSSGTTSRPTASRTQQTKGRLTVTISLKAYSPGRT
notes: as for B16
B21: PN30868 aa 167-336 (other)
chain: YNELAQLRAGKSSKSKLLIAKFKSPKSLNGWEVDQGSYFPNTFASRFDEGIDASFDFSEAGQAVFSGFVFTRGGYVEISKRLSLPLGSTLDRYDGLLFSVGGNGRSYVVILETGPLADTSQSKKYFARMTTKVGFCRVRVPFSAFRPVNPQDPPLDPFLVHTLTIRFEPK
notes: prey, AD fusion

Each binder was assayed against T1, OsMADS45 aa 50-198 (assay: Y2H; output trait library).
How it was run: (§1)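 Using an automated, high-throughput yeast two-hybrid assay provided by Myriad Genetics Inc. (Salt Lake City, Utah), protein-protein interactions were detected. Against either the input trait or the output trait rice prey library, a bait clone encoding a defined amino-acid fragment of a rice protein was screened. The encoding sequences of the prey clones that were retrieved were then compared against databases by BLAST to identify the interacting proteins.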

Row | binding result | Binder
1 | binds | B1
2 | binds | B2
3 | binds | B3

What follows are binders tested against T2, OsCS aa 316-583 (assay: Y2H; output trait library).
How it was run: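 Protein interactions were tested in an automated, high-throughput yeast two-hybrid screen supplied by Myriad Genetics Inc. Fragments of rice proteins, defined by amino-acid range, served as bait against rice prey clone libraries. Interacting prey clones were retrieved from the output trait library. The sequences encoding the retrieved fragments were compared by BLAST analysis against databases to identify the full-length genes. Each value records whether an interaction was detected.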

Row | binding result | Binder
4 | binds | B4
5 | binds | B5
6 | binds | B6
7 | binds | B7
8 | binds | B8
9 | binds | B9
10 | binds | B10
11 | binds | B11
12 | binds | B12

These binders were tested against T3, OsERP (PN20696) aa 50-145 (assay: Y2H; input trait library).
How it was run: as §1

Row | binding result | Binder
13 | binds | B13
14 | binds | B14
15 | binds | B15
16 | binds | B16
17 | binds | B17
18 | binds | B18
19 | binds | B19
20 | binds | B20
21 | binds | B21
